Values quoted from earlier work in paper PMC6473736.

Molecular target: Nterm (UniProt position 2, ----MVHLTPE)
Conditions: not stated (haem ligation state not given)

Human haemoglobin (adult Hb, alpha2beta2) (Homo sapiens)
pKa: approximately 7.8 (α-chain) and 6.8 (β-chain)
